According to PMC5496861, “Yeast Cip1 is activated by environmental stress to inhibit Cdk1–G1 cyclins via Mcm1 and Msn2/4”:

Target: T1, GST-Msn2(401-704) (Saccharomyces cerevisiae, UniProt P33748 401-704)
T1 sequence: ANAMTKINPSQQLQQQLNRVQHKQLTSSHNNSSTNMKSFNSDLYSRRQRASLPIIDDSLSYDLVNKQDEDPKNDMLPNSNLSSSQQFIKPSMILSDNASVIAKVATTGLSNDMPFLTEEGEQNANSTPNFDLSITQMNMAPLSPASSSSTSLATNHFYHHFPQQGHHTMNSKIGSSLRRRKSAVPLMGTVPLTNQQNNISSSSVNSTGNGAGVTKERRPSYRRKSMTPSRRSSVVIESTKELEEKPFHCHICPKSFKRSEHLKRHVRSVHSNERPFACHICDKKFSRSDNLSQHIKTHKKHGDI
Test: EMSA; 100 ng protein, 32P-end-labeled ds oligos, 4% nondenaturing polyacrylamide gel; buffer, salt, pH and temperature not given (as previously described, ref 64)
Settings: protein: recombinant; tags: N-terminal GST (pGEX4T-1); label: 32P end label; blunt

B1: STRE II (dsDNA)
DNA 1: GTATTTTCCTCCCCCTAGCTTCAAC
DNA 2: GTTGAAGCTAGGGGGAGGAAAATAC
binding result: binds

B2: STRE I (dsDNA)
DNA 1: GGAACTCGCGCAGGGGGAAGACATA
DNA 2: TATGTCTTCCCCCTGCGCGAGTTCC
binding result: binds
